Measurements published in patent US20160145343A1 (UNIVERSITY OF PITTSBURGH OF THE COMMONWEALTH SYSTEM OF …, published 2016).
Numbering of substitutions follows the chain as printed. Where no end group is shown, it is not given here. The star is where a group is joined. αGalNAc = CC(=O)N[C@@H]1[C@@H](O)[C@@H](O)[C@@H](CO)O[C@@H]1*; Galβ1‑3GalNAc = TF-antigen

T1: Synthetic peptide (GVTSAPDTRPAPGSTAPPAH)2
T1 peptide: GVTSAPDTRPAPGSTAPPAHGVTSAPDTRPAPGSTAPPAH

T2: Synthetic peptide HGVTSAPDTRPAPGSTAPP
T2 construct: Unglycosylated; also called 346; MUC1 repeat
T2 peptide: HGVTSAPDTRPAPGSTAPP

T3: SEQ ID NO: 346 glycopeptide with TF-antigen at Thr4
T3 construct: also called T4^TF
T3 peptide: HGVT(Galβ1‑3GalNAc)SAPDTRPAPGSTAPP

T4: SEQ ID NO: 346 glycopeptide with TF-antigen at Ser5 (not fully specified (residue 5))
T4 construct: also called S5^TF
T4 peptide: HGVTSAPDTRPAPGSTAPP

T5: SEQ ID NO: 346 glycopeptide with TF-antigen at Thr9
T5 construct: also called T9^TF
T5 peptide: HGVTSAPDT(Galβ1‑3GalNAc)RPAPGSTAPP

T6: SEQ ID NO: 346 glycopeptide with TF-antigen at Thr16
T6 construct: also called T16^TF
T6 peptide: HGVTSAPDTRPAPGST(Galβ1‑3GalNAc)APP

T7: SEQ ID NO: 346 glycopeptide with TF-antigen at Thr4 and Thr9
T7 construct: also called T4^TF/T9^TF
T7 peptide: HGVT(Galβ1‑3GalNAc)SAPDT(Galβ1‑3GalNAc)RPAPGSTAPP

T8: SEQ ID NO: 346 glycopeptide with Tn-antigen at Thr4, Thr9 and Thr16
T8 construct: also called T4^Tn/T9^Tn/T16^Tn
T8 peptide: HGVT(αGalNAc)SAPDT(αGalNAc)RPAPGST(αGalNAc)APP

B1: M3 (antibody, human IgG1, lambda, V domains shown)
VH: QLQLQESGPGLVKPSETLSLTCTVSGGSISSSSYYWGWIRQPPGKGLEWIGSIYYSGSTHYNPSLKSRVTISVDTSKNQFSLKLRSVTAADTAVYYCARGVVEVRGNHYYYYYMDVWGKGTTVTVSS
VL: QSVLTQPPSVSGAPGQRVTISCTGSSSNIGAGYDVHWYQQLPGTAPKLLIYGNSYRPSGVPDRFSGSKSGTSASLAITGLQAEDEADYYCQSYDSSLSGSGVFGGGTKLTVLG
notes: Human IgG
B2: M4 (antibody, human IgG1, lambda, V domains shown)
VH: B1 VH with S67R, V73E, R85S, Y113H, V116A
VL: B1 VL with R17G, T44S, L48F, L49F, N53S, S54N, Y55N
notes: Human IgG
B3: M20 (antibody, human IgG1, kappa, V domains shown)
VH: EVQLVESGGGLVQPGGSLRLSCAASGFTFSSYWMHWVRQAPGKGLVWVSHINSDGSSTSYADSVKGRFTISRDNAKNTLYLQMNSLRAEDTAVYYCARELADWGQGTLVTVSS
VL: DVVMTQSPLSLPVTLGQPASISCRSSQSLVYSDGNTYLNWFQQRPGQSPRRLIYQVSNRDSGVPDRFSGSGSGTDFTLKIGRVEAEDVGVYFCMQGTHWPWTFGQGTKVEIKR
notes: Human IgG
B4: M21 (antibody, human IgG1, kappa, V domains shown)
VH: EVQLVESGGGLVQPGGSLRLSCAASGFTVSSNYMSWVRQAPGKGLEWVSVIYSGGSTYYADSVKGRFTISRDNSKNTLYLQMNSLRAEDTAVYYCARDQEHYFDGSGYYVDYWGQGTLVTVSS
VL: B3 VL
notes: Human IgG
B5: M22 (antibody, human IgG1, kappa, V domains shown)
VH: EVQLVESGGGLVQPGGSLRLSCAASGFTVSSNYMSWVRQAPGKGLEWVSVIYSGGTTYYADSVKGRFTISRHNSKNTLYLQMNSLRAEDTAVYYCARDHDPDYGGYYMDVWGKGTTVTVSS
VL: B3 VL
notes: Human IgG
B6: M16 (antibody, human IgG1, kappa, V domains shown)
VH: QVQLVESGGGLVKPGGSLRLSCAASGFTFSDYYMSWIRQAPGKGLEWVSYISSSGTTKYYADSVKGRFTISRDNAKNSLYLQMNSLRAEDTAVYYCVRENLGYCSGGSCFYYYYMDVWGKGTTVTVSS
VL: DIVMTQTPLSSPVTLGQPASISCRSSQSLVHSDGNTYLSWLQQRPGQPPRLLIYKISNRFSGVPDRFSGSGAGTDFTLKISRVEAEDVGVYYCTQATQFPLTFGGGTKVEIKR
notes: Human IgG
B7: M14 (antibody, human IgG1, kappa, V domains shown)
VH: B6 VH
VL: not shown
B8: M8 (antibody, human IgG1, kappa, V domains shown)
VH: B6 VH with T56S, K58I, V97A, N100R, L101I, F110Y
VL: not shown
B9: M19 (antibody, human IgG1, kappa, V domains shown)
VH: B6 VH with T28I, N100D, L101I
VL: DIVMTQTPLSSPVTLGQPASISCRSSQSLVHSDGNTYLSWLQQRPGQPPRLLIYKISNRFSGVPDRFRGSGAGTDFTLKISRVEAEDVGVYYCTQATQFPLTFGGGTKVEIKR
notes: Human IgG
B10: M12 (antibody, human IgG1, kappa, V domains shown)
VH: B6 VH with L101I, S105T, S108N
VL: not shown
notes: Human IgG
B11: M9 (antibody, human IgG1, kappa, V domains shown)
VH: B6 VH with F110Y
VL: not shown
notes: Human IgG
B12: M13 (antibody, human IgG1, kappa, V domains shown)
VH: B6 VH with L101I, S105T, S108N
VL: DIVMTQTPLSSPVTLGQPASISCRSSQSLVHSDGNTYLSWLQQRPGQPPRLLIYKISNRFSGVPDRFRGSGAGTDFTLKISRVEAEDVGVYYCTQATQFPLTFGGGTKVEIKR
notes: Human IgG
B13: M15 (antibody, human IgG1, kappa, V domains shown)
VH: B6 VH
VL: not shown
notes: Human IgG
B14: M11 (antibody, human IgG1, kappa, V domains shown)
VH: B6 VH with S105T, S108N
VL: not shown
B15: M23 (antibody, human IgG1, kappa, V domains shown)
VH: B6 VH with L101I, S105T, S108N
VL: not shown
B16: M17 (antibody, human IgG1, kappa, V domains shown)
VH: B6 VH with T28I, N100D, L101I
VL: not shown
B17: M10 (antibody, human IgG1, kappa, V domains shown)
VH: B6 VH with F110Y
VL: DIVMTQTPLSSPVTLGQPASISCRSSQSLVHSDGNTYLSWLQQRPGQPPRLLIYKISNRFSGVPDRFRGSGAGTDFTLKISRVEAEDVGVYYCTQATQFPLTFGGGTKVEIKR
notes: Human IgG
B18: M18 (antibody, human IgG1, kappa, V domains shown)
VH: B6 VH with T28I, N100D, L101I
VL: not shown
notes: Human IgG
B19: M6 (antibody, human IgG1, kappa, V domains shown)
VH: EVQLVESGGGLVQPGGSLRLSCAASGFTVSSNYMSWVRQAPGKGLEWVSVIYSGGSTYYADSVKGRFTISRDNSKNTLYLQMNSLRAEDTAVYYCARGSTNTYYYDSSGHPWGQGTMVTVSS
VL: not shown
notes: Human IgG
B20: M5 (antibody, human IgG1, kappa, V domains shown)
VH: B19 VH
VL: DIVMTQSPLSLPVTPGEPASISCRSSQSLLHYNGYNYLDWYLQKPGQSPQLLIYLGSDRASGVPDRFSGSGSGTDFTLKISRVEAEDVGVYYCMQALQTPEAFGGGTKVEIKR
notes: Human IgG
B21: M1 (antibody, human IgG1, kappa, V domains shown)
VH: QLQLQESGPGLVKPSETLSLTCTVSGGSISSSRYYWGWIRQPPGKGLEWIGSIYYSGSTYYNPSLKSRVTISVDTSNNQFSLKLTSVTAADTAVYYCARLPESGGYSGWFDPWGQGTLVTVSS
VL: not shown
notes: Human IgG
B22: M2 (antibody, human IgG1, kappa, V domains shown)
VH: B21 VH
VL: not shown
notes: Human IgG

What was measured:
[1] = target: T1, Synthetic peptide …; experiment: ELISA on coated peptide, antibody 0.01 mg/ml, mean of 3
Text: (§1) Selected antibodies from Table 1 were further characterized for binding to synthetic MUC1 glycopeptides that were synthesized with the GalNac or GaNac-Gal carbohydrates on various serines and threonines along the MUC1 tandem repeat. If placed within the specific epitope recognized by an antibody, the antibody would not bind that particular glycopeptide.

[2] = target: T2, Synthetic peptide HGVTSAPDTRPAPGSTAPP; experiment: as above
Text: as §1

[3] = target: T9, 100 aa-long synthetic MUC1 peptide (…)5; experiment: ELISA titration on coated 100-mer peptide, EC50 approximated
T9 construct: also called 100-mer; vaccine 100-mer peptide
Text: (§2) Heavy and light chains of antibodies reactive against MUC1 were generated from plasma of individuals vaccinated with a 100 aa-long synthetic MUC1 peptide (100-mer) representing the unglycosylated tumor associated MUC1 antigen (Kimura et al., 2013, Cancer Prev. Res. (Phila.), 6:18-26). Binding of monoclonal antibodies produced by combinatorial pairing of chains was characterized by ELISA using the vaccine 100-mer peptide consisting of the following sequence ([…])₅ (SEQ ID NO: 2). Briefly, 96-well high-binding ELISA plates were coated with 50 μl of the peptide diluted in carbonate buffer at 2 μg/ml. The wells were washed then blocked with 5% fat-free milk in phosphate-buffered saline (PBS). Antibodies were diluted in 5% milk in PBS with 0.1% TWEEN 20 (PBS-T) and then added to the peptide-coated, blocked wells and incubated at 37° C. for 2 hours, after which the wells were washed. Binding of antibody was probed with an anti-human IgG goat antibody conjugated to horseradish peroxidase (HRP), and signal was detected with 3,3′,5,5′-tetramethylbenzidine (TMB) substrate, which was neutralized with an acid, then the 450 nm absorbance was read. […] Additionally, the EC₅₀ of each antibody was approximated by ELISA titration (Table 1).

[4] = target: T3, SEQ ID NO: 346 glycopeptide with …; experiment: ELISA on coated glycopeptide, antibody 0.01 mg/ml, mean of 3
Text: as §1

[5] = target: T4, SEQ ID NO: 346 glycopeptide with …; experiment: as above
Text: as §1

[6] = target: T5, SEQ ID NO: 346 glycopeptide with …; experiment: as above
Text: as §1

[7] = target: T6, SEQ ID NO: 346 glycopeptide with …; experiment: as above
Text: as §1

[8] = target: T7, SEQ ID NO: 346 glycopeptide with …; experiment: as above
Text: as §1

[9] = target: T8, SEQ ID NO: 346 glycopeptide with …; experiment: as above
Text: as §1

[10] = target: T9, 100 aa-long synthetic MUC1 peptide (…)5; experiment: ELISA on coated 100-mer peptide
Text: as §2

| Binder | ELISA absorbance at 450 nm [1] | ELISA absorbance at 450 nm [2] | EC50 [3] | ELISA absorbance at 450 nm [4] | ELISA absorbance at 450 nm [5] | ELISA absorbance at 450 nm [6] | ELISA absorbance at 450 nm [7] | ELISA absorbance at 450 nm [8] | ELISA absorbance at 450 nm [9] | binding result [10] |
| --- | --- | --- | --- | --- | --- | --- | --- | --- | --- | --- |
| B1 | 3.1 absorbance | 0.1 absorbance | 11 ng/mL | 0.1 absorbance | 0.1 absorbance | 0.1 absorbance | 0.1 absorbance | 0.1 absorbance | 0.1 absorbance | – |
| B2 | – | – | 4 ng/mL | – | – | – | – | – | – | – |
| B3 | 2.8 absorbance | 1.9 absorbance | 4 ng/mL | 2 absorbance | 2.1 absorbance | 1.9 absorbance | – | 1.9 absorbance | – | – |
| B4 | 3 absorbance | 2.1 absorbance | 11 ng/mL | 2.1 absorbance | 2.1 absorbance | 2.1 absorbance | – | 2.2 absorbance | – | – |
| B5 | 3.1 absorbance | 2.1 absorbance | 7 ng/mL | 2.2 absorbance | 2.2 absorbance | 2.3 absorbance | – | 2.3 absorbance | – | – |
| B6 | 3.3 absorbance | 2.2 absorbance | 11 ng/mL | – | 1.3 absorbance | – | 2.2 absorbance | – | – | – |
| B7 | 2.9 absorbance | 2.1 absorbance | 2 ng/mL | 1.6 absorbance | 2.1 absorbance | – | 2.4 absorbance | – | – | – |
| B8 | 3 absorbance | 2.1 absorbance | 4 ng/mL | 1.6 absorbance | 2.1 absorbance | – | 2.5 absorbance | – | – | – |
| B9 | – | – | – | – | – | – | – | – | – | binds |
| B10 | – | – | 2 ng/mL | – | – | – | – | – | – | – |
| B11 | – | – | 4 ng/mL | – | – | – | – | – | – | – |
| B12 | – | – | 2 ng/mL | – | – | – | – | – | – | – |
| B13 | – | – | 5 ng/mL | – | – | – | – | – | – | – |
| B14 | – | – | 10 ng/mL | – | – | – | – | – | – | – |
| B15 | 2.9 absorbance | 2 absorbance | – | 1.7 absorbance | 2.4 absorbance | – | 2.5 absorbance | – | – | binds |
| B16 | – | – | – | – | – | – | – | – | – | binds |
| B17 | – | – | 4 ng/mL | – | – | – | – | – | – | – |
| B18 | 3.3 absorbance | 2.4 absorbance | – | 1.5 absorbance | 2.7 absorbance | – | 2.5 absorbance | – | – | binds |
| B19 | – | – | 12 ng/mL | – | – | – | – | – | – | – |
| B20 | – | – | 100 ng/mL | – | – | – | – | – | – | – |
| B21 | 3.2 absorbance | 0.1 absorbance | 11 ng/mL | 0.1 absorbance | 0.1 absorbance | 0.1 absorbance | 0.1 absorbance | 0.1 absorbance | 0.1 absorbance | – |
| B22 | 3.4 absorbance | 0.1 absorbance | 7 ng/mL | 0.1 absorbance | 0.1 absorbance | 0.1 absorbance | 0.1 absorbance | 0.1 absorbance | 0.1 absorbance | – |
